Test results taken from the Human Domainome abundance scans (Beltran et al. 2025).
± gives the uncertainty stated by the source.

B1: Dynamin-binding protein, residues 242 to 304; numbered along this chain, Q6XZF7 (parent)
chain: EEPGTYGVALYRFQALEPNELDFEVGDKIRILATLEDGWLEGSLKGRTGIFPYRFVKLCPDTR

Variants of: B1
Test: abundance fitness (aPCA) (normalised: wild type 0, dead -1); higher = more abundant; growth selection in yeast, the domain comes from the species named
Conditions: Homo sapiens

Variant	abundance fitness
T62C	-0.198 ± 0.062
I29W	-0.823 ± 0.37
L16F	-0.067 ± 0.068
L44W	-0.506 ± 0.21
R63M	0.049 ± 0.14
Y11C	-0.124 ± 0.061
A15V	-0.608 ± 0.11
R47T	-0.678 ± 0.16
Y53N	0.138 ± 0.068
A9K	-0.824 ± 0.26
D22G	-0.02 ± 0.051
R30K	0.268 ± 0.13
R30N	-0.306 ± 0.069
T48F	-0.49 ± 0.067
N19F	-0.297 ± 0.061
I50W	-0.693 ± 0.19
R63L	-0.005 ± 0.083
R63N	0.168 ± 0.064
S43K	-0.148 ± 0.15
F55W	-0.374 ± 0.07
P60M	-0.317 ± 0.14
C59G	-0.225 ± 0.048
E1Y	-0.23 ± 0.083
C59I	0.038 ± 0.061

Variant	abundance fitness
R12L	-0.637 ± 0.093
V25Y	-0.463 ± 0.086
L58A	-0.594 ± 0.082
Y11S	-0.196 ± 0.045
V56F	-0.525 ± 0.07
T5K	-0.253 ± 0.16
K57R	-0.041 ± 0.047
P52C	-0.7 ± 0.082
I31M	-0.755 ± 0.23
R54H	0.027 ± 0.064
G26L	-0.598 ± 0.087
G7R	-0.781 ± 0.1
R54A	-0.049 ± 0.063
N19P	-0.704 ± 0.15
F55K	-0.748 ± 0.14
I29S	-0.776 ± 0.075
E20F	0.155 ± 0.056
A15N	-0.588 ± 0.11
P52Q	-0.912 ± 0.49
V8K	-0.427 ± 0.17
D61L	-0.185 ± 0.054
L44N	-0.567 ± 0.12
W39S	-0.56 ± 0.067
I31G	-0.512 ± 0.077

Variant	abundance fitness
A33M	-0.438 ± 0.24
W39D	-0.661 ± 0.11
E24T	-0.278 ± 0.086
I29Q	-0.955 ± 0.41
G4H	0.131 ± 0.066
I31E	-0.587 ± 0.27
R54Q	-0.008 ± 0.11
K57P	-0.746 ± 0.12
T34D	-0.114 ± 0.052
G46Y	-0.802 ± 0.065
A33H	-0.021 ± 0.081
E24I	-0.444 ± 0.083
G46K	-0.757 ± 0.28
V25L	-0.933 ± 0.13
R12Q	-0.821 ± 0.35
P60Y	-0.113 ± 0.062
R12N	0.009 ± 0.062
F51E	-0.854 ± 0.26
L40S	-0.325 ± 0.057
V8T	-0.047 ± 0.076
V25C	-0.328 ± 0.06
E2R	-0.321 ± 0.085
D61C	-0.112 ± 0.058
Q14G	-0.696 ± 0.077

Variant	abundance fitness
K28L	-0.57 ± 0.11
K45E	0.013 ± 0.14
L44V	0.012 ± 0.063
L32D	-0.495 ± 0.069
L16N	0.35 ± 0.054
A9P	-0.752 ± 0.17
E17H	0.229 ± 0.056
L35D	-0.664 ± 0.087
G7Y	-0.661 ± 0.1
I31C	-0.527 ± 0.078
A9G	-0.443 ± 0.072
I31K	-0.85 ± 0.31
E17T	-0.157 ± 0.074
F55H	-0.189 ± 0.041
T34F	-0.063 ± 0.058
R63W	-0.206 ± 0.16
P52S	-0.85 ± 0.074
V8G	-0.779 ± 0.092
W39P	-0.738 ± 0.15
I31F	-0.926 ± 0.12
Q14E	-0.131 ± 0.13
E36V	-0.777 ± 0.093
A15Y	-0.774 ± 0.11
L32K	-0.588 ± 0.2

Variant	abundance fitness
F23T	-0.775 ± 0.12
P60K	0.054 ± 0.11
Y11H	0.022 ± 0.067
Y53L	0.077 ± 0.061
P52N	-0.767 ± 0.11
E2C	-0.367 ± 0.082
R47V	-0.477 ± 0.065
F13P	-0.644 ± 0.14
R12I	-0.737 ± 0.1
F55R	-0.621 ± 0.049
V8P	-0.865 ± 0.2
F23K	-0.13 ± 0.17
E17P	-1.01 ± 0.32
K28V	-0.205 ± 0.056
P3H	0.088 ± 0.066
Y6M	-0.394 ± 0.16
R47H	-0.283 ± 0.08
G4W	-0.312 ± 0.16
G4I	0.078 ± 0.064
Q14K	-0.205 ± 0.13
V25P	-0.14 ± 0.081
P60A	-0.059 ± 0.074
P60Q	0.087 ± 0.15
I31D	-0.743 ± 0.13

Variant	abundance fitness
G38A	-0.842 ± 0.12
R63G	0.119 ± 0.083
T48K	0.112 ± 0.091
E20D	-0.631 ± 0.098
D22F	-0.016 ± 0.059
N19C	-0.518 ± 0.074
E1V	-0.001 ± 0.052
L21D	-1.03 ± 0.39
C59T	-0.192 ± 0.085
G42F	-0.745 ± 0.1
G49D	-0.574 ± 0.11
W39Y	-0.135 ± 0.066
G42I	-0.707 ± 0.16
P52I	-0.741 ± 0.11
Y11I	-0.14 ± 0.055
G42D	-0.578 ± 0.094
L16P	-0.697 ± 0.22
D27V	-0.934 ± 0.12
V8L	-0.192 ± 0.069
R54W	-0.292 ± 0.12
V8D	-0.717 ± 0.15
P18V	-0.332 ± 0.062
T5G	-0.765 ± 0.093
L10Q	-0.564 ± 0.21

Variant	abundance fitness
I50Q	-0.093 ± 0.12
G4A	-0.095 ± 0.059
L10I	0.028 ± 0.059
F55N	-0.399 ± 0.044
G38H	-0.454 ± 0.13
L35N	-0.544 ± 0.087
L44M	-0.58 ± 0.28
L21K	-0.744 ± 0.42
E41N	-0.527 ± 0.1
N19G	-0.055 ± 0.048
F23E	-0.94 ± 0.39
I29M	-0.735 ± 0.24
T34E	-0.038 ± 0.12
T62D	0.021 ± 0.051
L35E	-0.876 ± 0.4
E1N	-0.337 ± 0.087
F55V	-0.614 ± 0.043
I29C	-0.839 ± 0.11
L58D	-0.366 ± 0.069
K28I	-0.278 ± 0.084
Q14S	-0.321 ± 0.056
V8Q	-0.449 ± 0.35
L40P	-0.642 ± 0.12
